Consider one molecule from patent US20110229491A1 (published 2011).

In the assay the target is T1, MCM5:YFPC fusion protein (Arabidopsis, UniProt O80786 1-727).
T1 construct: BiFC construct expressed in tobacco leaf epidermal cells; not shown: YFPC: fragment with amino acid residues 155-238 of YFP (plasmid pUC-SPYCE)
T1 sequence (looked up): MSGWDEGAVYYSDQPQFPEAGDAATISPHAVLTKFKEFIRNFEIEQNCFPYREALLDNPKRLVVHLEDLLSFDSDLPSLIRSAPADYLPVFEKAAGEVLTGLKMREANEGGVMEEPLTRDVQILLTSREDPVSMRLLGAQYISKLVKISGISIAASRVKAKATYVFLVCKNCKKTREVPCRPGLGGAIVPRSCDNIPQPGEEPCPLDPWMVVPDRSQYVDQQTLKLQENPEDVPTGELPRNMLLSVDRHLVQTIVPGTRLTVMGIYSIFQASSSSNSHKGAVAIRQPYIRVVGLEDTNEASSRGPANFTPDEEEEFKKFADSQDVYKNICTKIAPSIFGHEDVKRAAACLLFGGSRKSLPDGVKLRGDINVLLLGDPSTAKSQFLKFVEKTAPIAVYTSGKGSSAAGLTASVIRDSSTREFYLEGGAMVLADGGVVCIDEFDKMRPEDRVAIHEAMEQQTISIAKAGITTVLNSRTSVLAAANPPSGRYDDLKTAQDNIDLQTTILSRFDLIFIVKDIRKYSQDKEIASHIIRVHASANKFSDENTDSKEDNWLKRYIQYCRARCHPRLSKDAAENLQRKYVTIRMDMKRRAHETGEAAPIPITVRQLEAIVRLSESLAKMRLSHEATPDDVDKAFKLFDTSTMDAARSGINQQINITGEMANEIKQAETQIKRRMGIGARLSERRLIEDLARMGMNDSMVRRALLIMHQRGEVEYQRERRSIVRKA
Description: BiFC in tobacco leaf epidermal cells. How it is done:
Full-length open reading frames of ETG1 and MCM5 were transferred into the pH7FWG2 destination vector (Karimi et al., 2002) by LR recombination reaction, resulting in ETG1:EGFP and MCM5:EYFP fusion proteins, respectively. BiFC assay was performed as described by Walter et al. (2004). The coding region of ETG1 was amplified with 5′-[…]-3′ (SEQ ID NO:28) and 5′-[…]-3′ (SEQ ID NO:29) primers, and cloned via BamHI-XhoI into the plasmid pUC-SPYNE (Walter et al., 2004), resulting in the plasmid expressed as the ETG1:YFPN fusion protein; the coding region of MCM5 was also obtained with 5′-[…]-3′ (SEQ ID NO:30) and 5′-[…]-3′ (SEQ ID NO:31) primers, and cloned via SpeI-SalI into the plasmid pUC-SPYCE (Walter et al., 2004) to give rise to the plasmid expressed as the MCM5:YFPC fusion protein.
The Agrobacterium strains containing both BiFC constructs were co-infiltrated into tobacco leaves. Epidermal cell layer of tobacco leaves were assayed for fluorescence using confocal laser scanning microscope (Zeiss) two to four days after infiltration. […] As expected, no fluorescence was detected when any combination with empty vectors was introduced into tobacco cells (FIG. 5, Panel C; ETG1-YFPN and YFPC, YFPN and MCM5-YFPC).

B1: ETG1:YFPN fusion protein (other, UniProt Q501D5 1-589, looked up)
chain: MGGPAYDCLTNPLGAVRFSFVNALSSGYDPASSVGKDWGVVDLFRHYFSDESAISQVPILDSSSIKWVQPKTLVRFRGMIQDMLGNEFYAGAYKDDSTWRTNKYSDVSQFPEGSSTEIQVWERRLLYCVPVPGKNQWTECSSQELKNRFLDLTGQNREKRVRVDEEMTDSMDSSTLEAGRNGSPFKKMKVGEATSSASESQVPQTSGIPPATSADSLPCLVKIYDSPESDLKLNDVVEFLGVLTFDPIVMMDTDTLDENSDALSEAESVQMPSGKVPRLHCLIHRKLETQHFLHGSSLLPEPKSPQIFKEIRESLMKYLTGLLGNDHIAAQFLLLHLLSKVHGRVDNVAVGKLSLNLIHLNKESMSIFGTQLSGALKSLLPFTQSIPLTIEYLNTASFGPKKDYGINRLMPGVLQIADGTHLILDETELQPGTLNSVGVENANLLKNLLECQKVEYDFQYYKMEMATDVQMLIFSEGKSNIMPADLVLPLQPSQVNSLEVITPETAETWRCYLATCKSLSHSIGQELQQVVENDLVAARQTDRSLGSQDLSRLLTMARMMSVSYGETTLSLEHWQMVLELERLRKERLK
notes: range 1-589;range 1-154; BiFC construct expressed in tobacco leaf epidermal cells; not shown: YFPN: fragment with amino acid residues 1-154 of YFP (plasmid pUC-SPYNE)
For B1, the binding result was “binds”.
